Reference: the supplement of paper PMC10567573

B1: PKD2L1 (parent)
chain: YSGGGYYLDLPGSRQGSAEALRAL
B2: SLC2A12 (parent)
chain: CLLGLGSLVLILSLSYTVLIVGRI

Variants of: B1
Test: protein stability index of a GFP-peptide fusion (GPS, HEK-293T) (PSI 1-6); higher = more stable
Details: c terminus: a fixed tail appended
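Further: lentivirally expressed fusions sorted by FACS into six bins by GFP to DsRed ratio, PSI derived from sequencing read proportions per bin multiplied by bin number.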

Protein stability index of substitutions, site by site:
S2: K 2.22 | N 1.84 | G 1.45 | E 3 | Q 2.3 | I 2.34 | F 1.93 | R 2.51
E19: I 1.45 | G 2.02 | D 1.81 | H 1.42 | V 1.89 | Q 1.63 | Y 2.23 | M 2.09 | T 1.77 | N 1.77 | C 2.27 | F 2.33
R22: M 2.61 | C 2.11 | Y 2.02 | N 1.65 | Q 1.5 | V 2.03 | K 2.08 | E 1.86
L21: E 1.36 | Q 1.87 | T 1.86 | M 3.01 | S 2.27 | Y 1.91 | V 1.8 | A 1.46 | I 1.75 | C 1.41 | K 2.26 | D 1.98
G16: E 1.92 | R 1.98 | V 1.77 | D 2.02 | W 2.5 | P 1.92 | I 2.3 | Q 2 | S 2.27 | C 1.86 | K 1.97
A18: K 2.75 | T 1.35 | V 1.49 | C 2.16 | S 1.5 | M 1.88
L10: A 2.27 | Q 1.27 | G 1.56 | C 2.31 | S 1.46 | K 1.73 | V 2.17 | T 2.35 | R 2.97 | F 2.09 | H 1.58
Y7: S 3.21 | Q 2.4 | I 1.39 | V 2.21 | P 2.96 | C 1.93 | R 2.06 | W 1.91 | E 3.37 | L 1.66 | G 2.24
G4: N 1.67 | E 1.8 | I 1.78 | W 2.44 | Q 2.23 | F 2.49 | L 2.15 | S 2.08 | D 2.86 | C 1.95
G12: R 1.59 | K 1.74 | L 2.15 | D 2.09 | I 1.55 | S 2.21 | F 1.57 | T 1.88
A20: G 1.66 | S 2.2 | D 1.86 | H 1.25 | K 1.74 | W 2.36 | C 3.77 | Y 1.76 | V 1.6 | I 1.37
L8: A 2.12 | P 1.99 | V 2.45 | R 2.08 | H 4.24 | W 2.72 | Q 2.26 | T 3.55 | E 2.9 | G 1.67 | C 1.69 | S 1.37
G5: L 1.6 | C 1.25 | T 1.96 | I 1.33 | W 3.35 | P 2.41
P11: M 2.68 | K 1.91 | D 1.21 | W 2.52 | G 3.43 | H 1.44 | R 3.15 | L 2.54 | F 2.12
A23: V 2.45 | Y 1.53 | D 2.21 | C 1.59 | L 1.73 | R 2.26 | N 2.05 | S 1.86
R14: V 1.91 | K 2.56 | C 1.55 | A 3.28 | N 1.63 | L 2.71 | D 1.82 | T 2.15 | H 1.84
Y6: L 1.59 | P 2.42 | M 2.16 | K 2.66 | S 3.28
L24: H 2.65 | P 2.7 | C 1.62 | F 1.99 | I 1.63 | T 1.61 | S 2.41 | R 2.34 | A 1.85 | Y 2.12 | E 1.49 | W 1.62
Q15: M 2.81 | Y 2.17 | H 1.28 | A 2.41 | S 1.83 | D 1.98 | E 2.16 | T 1.21 | F 1.61 | C 3.34 | L 1.74
D9: E 2.01 | H 1.95 | N 2.46 | I 3.81 | P 1.66 | Y 4.13 | G 3.74 | M 3.33 | Q 1.24
Y1: W 2.94 | C 2.29 | F 2.68 | S 3.48 | I 2.72 | N 3.58 | V 2.98 | E 3.75
S13: L 1.5 | P 1.85 | I 1.25 | A 1.45 | R 2.38 | W 1.78 | Q 2.28 | N 1.38 | M 2.4 | F 1.92 | H 1.58
S17: I 1.75 | N 2.01 | F 1.98 | W 1.98 | K 1.78 | D 1.92 | H 2.36 | C 1.39 | A 1.6 | E 2 | Y 2.03
G3: W 2.09 | F 1.45 | H 2.02 | L 2.87 | R 2.47 | I 2.27 | D 2.5 | E 2.06 | A 1.58 | P 2.31

Variants of: B2
Test: as above
Details: c terminus: a fixed tail appended

Protein stability index of substitutions, site by site:
V18: F 1.87
S7: H 1.81 | R 1.8 | K 2.01 | I 2.45 | P 2.76 | T 2.51 | A 3.86 | N 2.72
L3: E 2.54 | N 2.92 | R 2.62 | K 2.17 | T 1.32
L5: R 2.84 | W 2.12 | Y 3.19 | I 3.48 | M 3.94 | E 2.46 | H 2.6 | Q 2.45 | G 3.97
V9: K 1.27 | H 2.07 | F 3.79 | N 1.9 | T 2.25 | S 3.94 | D 3.2 | Y 2.23
T17: N 2.91 | F 3.38 | E 3.32 | Y 2.3
L8: H 2.87 | I 3 | P 2.7 | D 4.51
L10: C 3.02 | T 3.09 | W 3.03 | K 2.9 | N 2.3 | S 2.96
C1: W 1.27 | I 1.83 | M 2.46 | N 2.15 | K 1.68 | R 2.88 | L 2.46
I11: D 3.63 | W 1.42 | E 4.57 | Y 1.36
S15: H 3.25 | C 4.02 | N 3.57 | W 1.8 | D 2.87 | Q 1.91 | I 3.21
L12: N 2.87 | P 2.04 | I 1.58 | E 3.91 | T 2.44 | S 1.92 | V 3.35 | Y 3.84 | W 3.73 | Q 3.11
L14: V 3.61 | E 2.46 | F 2.16 | D 2.03 | H 3.01
G4: Y 4.5 | D 3.12 | F 3.56 | L 4.03 | C 2.73
Y16: W 1.91 | P 3.53 | M 3.02
G6: Y 3.29 | C 4.32 | D 3.1 | A 2.43 | F 2.27 | T 2.06 | H 2.78 | E 3.33 | I 2.69
S13: R 1.87 | I 3.33 | F 3.31 | L 2 | N 1.87 | D 2.82
L2: Q 1.55 | C 2.93 | K 1.76 | H 3.48 | M 2.96
